In paper PMC4949553:

Tests used:
[1] = western blot, soluble plus insoluble intracellular fractions; conditions: glycan lost; control: G392E NS
[2] = non-denaturing PAGE and western blot, COS-7; conditions: glycan lost
[3] = polymer sandwich ELISA of cell lysates; conditions: glycan lost
[4] = western densitometry, insoluble fraction, MG132 treatment; conditions: glycan lost; control: G392E NS
[5] = SDS/PAGE western blot densitometry of insoluble fraction; conditions: glycan lost; control: wild type NS
[6] = 35S pulse-chase, total intracellular NS up to 24 h; conditions: glycan lost; control: G392E NS

B1: G392E neuroserpin (G392E NS): G392E/N321A (protein)
parent chain: MAFLGLFSLLVLQSMATGATFPEEAIADLSVNMYNRLRATGEDENILFSPLSIALAMGMMELGAQGSTQKEIRHSMGYDSLKNGEEFSFLKEFSNMVTAKESQYVMKIANSLFVQNGFHVNEEFLQMMKKYFNAAVNHVDFSQNVAVANYINKWVENNTNNLVKDLVSPRDFDAATYLALINAVYFKGNWKSQFRPENTRTFSFTKDDESEVQIPMMYQQGEFYYGEFSDGSNEAGGIYQVLEIPYEGDEISMMLVLSRQEVPLATLEPLVKAQLVEEWANSVKKQKVEVYLPRFTVEQEIDLKDVLKALGITEIFIKDANLTGLSDNKEIFLSKAIHKSFLEVNEEGSEAAAVSGMIAISRMAVLYPQVIVDHPFFFLIRNRRTGTILFMERVMHPETMNTSGHDFEEL
**Q.** What does the source list for B1?
**A.** localisation_or_trafficking [1]: increases; oligomerisation ([2]; control: G392E NS): increases; oligomerisation ([3]; control: G392E NS): increases; other: insoluble NS accumulating under proteasome inhibition [4]: increases

B2: neuroserpin (NS), wild type: N157A/N321A (protein)
parent chain: MAFLGLFSLLVLQSMATGATFPEEAIADLSVNMYNRLRATGEDENILFSPLSIALAMGMMELGAQGSTQKEIRHSMGYDSLKNGEEFSFLKEFSNMVTAKESQYVMKIANSLFVQNGFHVNEEFLQMMKKYFNAAVNHVDFSQNVAVANYINKWVENNTNNLVKDLVSPRDFDAATYLALINAVYFKGNWKSQFRPENTRTFSFTKDDESEVQIPMMYQQGEFYYGEFSDGSNEAGGIYQVLEIPYEGDEISMMLVLSRQEVPLATLEPLVKAQLVEEWANSVKKQKVEVYLPRFTVEQEIDLKDVLKALGITEIFIKDANLTGLSDNKEIFLSKAIHKSFLEVNEEGSEAAAVSGMIAISRMAVLYPQVIVDHPFFFLIRNRRTGTILFMGRVMHPETMNTSGHDFEEL
**Q.** Which oligomerisation ([2]; control: wild type NS) does the source give for B2 here?
**A.** increases

**Q.** And the “other: amount in insoluble intracellular fraction” value [5]?
**A.** increases

**Q.** What about the oligomerisation ([3]; control: wild type NS) of the same protein?
**A.** increases

B3: G392E neuroserpin (G392E NS): G392E/N157A (protein)
parent chain: MAFLGLFSLLVLQSMATGATFPEEAIADLSVNMYNRLRATGEDENILFSPLSIALAMGMMELGAQGSTQKEIRHSMGYDSLKNGEEFSFLKEFSNMVTAKESQYVMKIANSLFVQNGFHVNEEFLQMMKKYFNAAVNHVDFSQNVAVANYINKWVENNTNNLVKDLVSPRDFDAATYLALINAVYFKGNWKSQFRPENTRTFSFTKDDESEVQIPMMYQQGEFYYGEFSDGSNEAGGIYQVLEIPYEGDEISMMLVLSRQEVPLATLEPLVKAQLVEEWANSVKKQKVEVYLPRFTVEQEIDLKDVLKALGITEIFIKDANLTGLSDNKEIFLSKAIHKSFLEVNEEGSEAAAVSGMIAISRMAVLYPQVIVDHPFFFLIRNRRTGTILFMERVMHPETMNTSGHDFEEL
**Q.** What does the source list for B3?
**A.** localisation_or_trafficking [1]: increases; oligomerisation ([2]; control: G392E NS): increases

B4: G392E neuroserpin (G392E NS): G392E/N401A (protein)
parent chain: MAFLGLFSLLVLQSMATGATFPEEAIADLSVNMYNRLRATGEDENILFSPLSIALAMGMMELGAQGSTQKEIRHSMGYDSLKNGEEFSFLKEFSNMVTAKESQYVMKIANSLFVQNGFHVNEEFLQMMKKYFNAAVNHVDFSQNVAVANYINKWVENNTNNLVKDLVSPRDFDAATYLALINAVYFKGNWKSQFRPENTRTFSFTKDDESEVQIPMMYQQGEFYYGEFSDGSNEAGGIYQVLEIPYEGDEISMMLVLSRQEVPLATLEPLVKAQLVEEWANSVKKQKVEVYLPRFTVEQEIDLKDVLKALGITEIFIKDANLTGLSDNKEIFLSKAIHKSFLEVNEEGSEAAAVSGMIAISRMAVLYPQVIVDHPFFFLIRNRRTGTILFMERVMHPETMNTSGHDFEEL
**Q.** Which results are given for B4?
**A.** degradation_or_half_life [6]: no change; localisation_or_trafficking [1]: increases; oligomerisation ([2]; control: G392E NS): increases; oligomerisation ([3]; control: G392E NS): increases; other: insoluble NS accumulating under proteasome inhibition [4]: increases

B5: neuroserpin (NS), wild type: N321A (protein)
parent chain: MAFLGLFSLLVLQSMATGATFPEEAIADLSVNMYNRLRATGEDENILFSPLSIALAMGMMELGAQGSTQKEIRHSMGYDSLKNGEEFSFLKEFSNMVTAKESQYVMKIANSLFVQNGFHVNEEFLQMMKKYFNAAVNHVDFSQNVAVANYINKWVENNTNNLVKDLVSPRDFDAATYLALINAVYFKGNWKSQFRPENTRTFSFTKDDESEVQIPMMYQQGEFYYGEFSDGSNEAGGIYQVLEIPYEGDEISMMLVLSRQEVPLATLEPLVKAQLVEEWANSVKKQKVEVYLPRFTVEQEIDLKDVLKALGITEIFIKDANLTGLSDNKEIFLSKAIHKSFLEVNEEGSEAAAVSGMIAISRMAVLYPQVIVDHPFFFLIRNRRTGTILFMGRVMHPETMNTSGHDFEEL
**Q.** What does the source list for B5?
**A.** oligomerisation ([2]; control: wild type NS): increases; oligomerisation ([3]; control: wild type NS): increases

B6: neuroserpin (NS), wild type: N157A (protein)
parent chain: MAFLGLFSLLVLQSMATGATFPEEAIADLSVNMYNRLRATGEDENILFSPLSIALAMGMMELGAQGSTQKEIRHSMGYDSLKNGEEFSFLKEFSNMVTAKESQYVMKIANSLFVQNGFHVNEEFLQMMKKYFNAAVNHVDFSQNVAVANYINKWVENNTNNLVKDLVSPRDFDAATYLALINAVYFKGNWKSQFRPENTRTFSFTKDDESEVQIPMMYQQGEFYYGEFSDGSNEAGGIYQVLEIPYEGDEISMMLVLSRQEVPLATLEPLVKAQLVEEWANSVKKQKVEVYLPRFTVEQEIDLKDVLKALGITEIFIKDANLTGLSDNKEIFLSKAIHKSFLEVNEEGSEAAAVSGMIAISRMAVLYPQVIVDHPFFFLIRNRRTGTILFMGRVMHPETMNTSGHDFEEL
**Q.** Which results are given for B6?
**A.** oligomerisation ([2]; control: wild type NS): increases; oligomerisation ([3]; control: wild type NS): increases
